One block for each binder: values may come before it.
Assays:
Assay in all cases: ITC
[1] = molecular target: Escherichia coli RelA, full-length (Escherichia coli (K-12 entry; strain …, UniProt P0AG20)
[2] = molecular target: Rel from Chlorobaculum tepidum, full-length (Chlorobaculum tepidum (TLS entry; …, UniProt Q8KC80)
[3] = molecular target: RelCt^R215E (Chlorobaculum tepidum)

Sequence of Escherichia coli RelA, full-length (Escherichia coli (P0AG20 whole entry): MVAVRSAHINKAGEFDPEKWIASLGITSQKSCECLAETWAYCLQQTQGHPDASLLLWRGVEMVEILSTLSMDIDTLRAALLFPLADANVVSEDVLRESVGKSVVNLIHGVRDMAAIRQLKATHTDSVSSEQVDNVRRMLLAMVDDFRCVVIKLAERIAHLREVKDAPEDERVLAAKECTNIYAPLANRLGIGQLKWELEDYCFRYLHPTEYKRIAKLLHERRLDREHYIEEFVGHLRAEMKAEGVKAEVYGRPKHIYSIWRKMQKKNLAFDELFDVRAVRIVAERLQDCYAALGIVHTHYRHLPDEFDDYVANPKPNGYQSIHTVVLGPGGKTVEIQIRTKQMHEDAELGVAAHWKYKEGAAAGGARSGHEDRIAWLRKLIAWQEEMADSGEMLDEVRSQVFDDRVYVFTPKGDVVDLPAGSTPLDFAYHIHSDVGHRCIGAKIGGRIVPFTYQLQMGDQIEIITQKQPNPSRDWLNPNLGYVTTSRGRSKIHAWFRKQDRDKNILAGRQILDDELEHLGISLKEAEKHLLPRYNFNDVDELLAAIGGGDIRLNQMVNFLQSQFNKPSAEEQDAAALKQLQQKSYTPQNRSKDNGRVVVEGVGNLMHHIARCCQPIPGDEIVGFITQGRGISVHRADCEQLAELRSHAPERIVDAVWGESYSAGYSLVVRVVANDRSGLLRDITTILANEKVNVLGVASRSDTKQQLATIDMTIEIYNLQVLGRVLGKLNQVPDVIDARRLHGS

B1: Nb94 (VHH)
VHH: QVQLVESGGGMVQPGGSLRLSCAASGFTFSTYSMGWFRQAPGQEREFVAAISWSGDSAYYADSVKGRFTISRDNAKNTVYLQMNSLKFEDTAVYYCNADLDGLGYDYWGQGTQVTVS
- Kd [1]: 13 nM

B3: Nb585 (VHH)
VHH: QVQLQESGGGLVQAGGSLRLSCAASGFTFEDYTIGWFRQAPGKEREGVSLISNSDGFTSYADSVKGQFTISSENAKNTVYLQMDNLKPEDTAVYYCAATEVLAHLMWRPSNWGYWGQGTQVTV
- Kd [2]: 21 nM
- fold drop in affinity against RelCt [3]: 28 fold

B5: Nb120 (VHH)
VHH: QVQLVESGGGLVQPGGSLRLSCAASGTIRSLNAMAWYRQAPGKERELAARISSGGTTTYADSVKGRFTISRDNAKNTLYLQMNSLKPEDTAVYYCKANRFSTYGYRDDIWGQGTQVTVS
- binding result [1]: no binding

Continued, values first:

- Kd [2]: 186 nM
B2: Nb898 (VHH)
VHH: QVQLQESGGGLVQAGGSLRLSCAASGSIESINAMAWYRQAPGKPRELVAVIAKSDGSTTYAVPVKGRFTISRDDAKNTVYLQMNSLKPEDTAIYYCNKIPNFTYWGQGTQVTVSS

- Kd [1]: 157 nM
B4: Nb96 (VHH)
VHH: QVQLQESGGGLVQAGGSLRLSCAASGSIFDIKVMAWYRQAPGKSRELVAVHASADDSTTYEKSVKGRFTISRDNAKNTVYLQMNSLKPEDTAIYYCNRIPNFTHWGQGTQVTVS
